# Reference: PMC6323846, “Comprehensive investigation of the gene expression system regulated by an Aspergillus oryzae transcription factor XlnR using integrated mining of gSELEX-Seq and microarray data”
# T1: MBP-AoXlnR (MBP-XlnR1-183) (Aspergillus oryzae (strain not given for the expression construct; RIB40 used for genomic DNA)) (UniProt Q2UD93)
# T1 sequence: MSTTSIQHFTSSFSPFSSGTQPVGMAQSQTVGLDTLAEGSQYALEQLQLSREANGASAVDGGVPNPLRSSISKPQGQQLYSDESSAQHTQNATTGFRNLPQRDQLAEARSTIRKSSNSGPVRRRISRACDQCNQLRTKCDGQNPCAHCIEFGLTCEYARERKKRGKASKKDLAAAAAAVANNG
# T2: MBP-AoXlnR (MBP-XlnR1-183) (Aspergillus oryzae (strain  …, UniProt Q2UD93 1-183))
# T2 sequence: T1 sequence
# B1: abf-687 (abf-680 in Table S1) (dsDNA)
# DNA 1: GCAGAAGCTCTTGCAGATCTGTCGGCTGAAGGTTTGTTTTAGGCCAAATGCCTTTTTTTTTTTTTTTTTT
# DNA 2: AAAAAAAAAAAAAAAAAAGGCATTTGGCCTAAAACAAACCTTCAGCCGACAGATCTGCAAGAGCTTCTGC
# B2: egl-242 (dsDNA)
# DNA 1: GGAGACTCCTCTCATCTTGCTGGGCTGAAGACTCGGTCAATACCATGATACCTTTTTTTTTTTTTTTTTT
# DNA 2: AAAAAAAAAAAAAAAAAAGGTATCATGGTATTGACCGAGTCTTCAGCCCAGCAAGATGAGAGGAGTCTCC
# B3: abf-830 (abf-837 in Table S1) (dsDNA)
# DNA 1: TTAAACACATGAGACACACTCGCGGCTGAATGGTTTCGGGTTTTAGCCGGCCTTTTTTTTTTTTTTTTTT
# DNA 2: AAAAAAAAAAAAAAAAAAGGCCGGCTAAAACCCGAAACCATTCAGCCGCGAGTGTGTCTCATGTGTTTAA
# B4: egl-363 (dsDNA)
# DNA 1: CAACCCGAGGGTCGATCGACTCCGGCATTAGCTGCCCAGCAGGTATACAGCCTTTTTTTTTTTTTTTTTT
# DNA 2: AAAAAAAAAAAAAAAAAAGGCTGTATACCTGCTGGGCAGCTAATGCCGGAGTCGATCGACCCTCGGGTTG
# B5: egl-617 (dsDNA)
# DNA 1: GCAGCGGCGAAAGGTGCAGGATGGCTGACGCTCAGTTTAATGAGCAGTGGCCTTTTTTTTTTTTTTTTTT
# DNA 2: AAAAAAAAAAAAAAAAAAGGCCACTGCTCATTAAACTGAGCGTCAGCCATCCTGCACCTTTCGCCGCTGC
# Molecular target: T1, MBP-AoXlnR (MBP-XlnR1-183) (Aspergillus oryzae (strain not given for the expression construct; RIB40 used for genomic DNA))
# Assay: BLI
# Details: BLI (BLItz, streptavidin sensors), Kinetics Buffer 10x (Pall-ForteBio; composition and pH not stated), room temperature, DNA immobilized, 1:1 global fit
row,Molecule,Kd [nM]
1,XRE-WT,656
2,CCAGCCAACCTTCAGCTCAGCAATGCATGCCTTTTTCCCTTTTACCCATTTACCCAGGAATAATGGCATCCTCAGGGTTTCAGCATCTGCT (double strand) [xynF1_upstream_1],311
3,GGAATTCGGGGTATTAGGCTAAACGTGGCTATCATGGTGAAACAGGCTGAAGAACAGTTCCTGGCAGGTCAAATGGGAATCTAGAGC (double strand) [XRE-WT],656

# Molecular target: T2, MBP-AoXlnR (MBP-XlnR1-183)
# Assay: BLI; BLI (BLItz, streptavidin sensors), Kinetics Buffer 10x (Pall-ForteBio; composition and pH not stated), room temperature, DNA immobilized, 1:1 global fit
# Details: protein: recombinant; label: 5' biotin on bio-polyA strand (complement of strand 1, S14 extended); blunt
row,Molecule,Kd [nM]
1,B1,133
2,B2,40.6
3,B3,144
4,B4,68.7
5,B5,48.4
